Data published in article PMC4201484.

Legend:
β-TrCP2 = β-TrCP2 (UniProt Q9UKB1); assay: co-IP, anti-HA IP, anti-Flag blot; conditions: reference: wild type; sites S525
β-TrCP1 = β-TrCP1 (UniProt Q9Y297); assay: co-IP, anti-HA IP, anti-Flag blot; conditions: reference: wild type; sites S525

binding against the reference (β-TrCP2): weaker
binding against the reference (β-TrCP1): weaker
Substance: Rap1GAP (from UniProt P47736) S525A
